# According to the RNAGym collection of RNA variant scans (doi:10.1021/acssynbio.7b00057):
# B1: Pistol ribozyme (parent)
# chain: GGGUCGUUGUUCCAUAAUCGCGUGGAUAUGGCACGCAAGUUUCUACCGGGCACCGUAAAUGUCCGACUGGAGCCGUUCGGGCGGCUAUAAACAGACCUCAGGCCCGAAGCGUGGCGGCACCUGCCGCCGGUGGUAAAAAAGAUCGGAAGAGCACACGUCU
# Variants of: B1
# Assay: aptazyme ON/OFF ratio, guanine; higher = stronger switching; co-transcriptional cleavage with and without guanine
row,Variant,aptazyme ON/OFF ratio
1,GGGUCGCGCGACUAUAAUCGCGUGGAUAUGGCACGCAAGUUUCUACCGGGCACCGUAAAUGUCCGACUGGAGCCGUUCGGGCGGCUAUAAACAGACCUCAGGCCCGAAGCGUGGCGGCACCUGCCGCCGGUGGUAAAAAAGAUCGGAAGAGCACACGUCU,1.16
2,GGGUCGCGCGACAAUAAUCGCGUGGAUAUGGCACGCAAGUUUCUACCGGGCACCGUAAAUGUCCGACUGGAGCCGUUCGGGCGGCUAUAAACAGACCUCAGGCCCGAAGCGUGGCGGCACCUGCCGCCGGUGGUAAAAAAGAUCGGAAGAGCACACGUCU,1.3
3,GGGUCGCGCGACGAUAAUCGCGUGGAUAUGGCACGCAAGUUUCUACCGGGCACCGUAAAUGUCCGACUGGAGCCGUUCGGGCGGCUAUAAACAGACCUCAGGCCCGAAGCGUGGCGGCACCUGCCGCCGGUGGUAAAAAAGAUCGGAAGAGCACACGUCU,1.19
4,GGGUCGCGCGUUUAUAAUCGCGUGGAUAUGGCACGCAAGUUUCUACCGGGCACCGUAAAUGUCCGACUGGAGCCGUUCGGGCGGCUAUAAACAGACCUCAGGCCCGAAGCGUGGCGGCACCUGCCGCCGGUGGUAAAAAAGAUCGGAAGAGCACACGUCU,1.35
5,GGGUCGCGCGUUGAUAAUCGCGUGGAUAUGGCACGCAAGUUUCUACCGGGCACCGUAAAUGUCCGACUGGAGCCGUUCGGGCGGCUAUAAACAGACCUCAGGCCCGAAGCGUGGCGGCACCUGCCGCCGGUGGUAAAAAAGAUCGGAAGAGCACACGUCU,1.14
6,GGGUCGCGCGUUAAUAAUCGCGUGGAUAUGGCACGCAAGUUUCUACCGGGCACCGUAAAUGUCCGACUGGAGCCGUUCGGGCGGCUAUAAACAGACCUCAGGCCCGAAGCGUGGCGGCACCUGCCGCCGGUGGUAAAAAAGAUCGGAAGAGCACACGUCU,1.24
7,GGGUCGCGCGUAGAUAAUCGCGUGGAUAUGGCACGCAAGUUUCUACCGGGCACCGUAAAUGUCCGACUGGAGCCGUUCGGGCGGCUAUAAACAGACCUCAGGCCCGAAGCGUGGCGGCACCUGCCGCCGGUGGUAAAAAAGAUCGGAAGAGCACACGUCU,1.09
8,GGGUCGCGCGUAUAUAAUCGCGUGGAUAUGGCACGCAAGUUUCUACCGGGCACCGUAAAUGUCCGACUGGAGCCGUUCGGGCGGCUAUAAACAGACCUCAGGCCCGAAGCGUGGCGGCACCUGCCGCCGGUGGUAAAAAAGAUCGGAAGAGCACACGUCU,1.26
9,GGGUCGCGCGUAAAUAAUCGCGUGGAUAUGGCACGCAAGUUUCUACCGGGCACCGUAAAUGUCCGACUGGAGCCGUUCGGGCGGCUAUAAACAGACCUCAGGCCCGAAGCGUGGCGGCACCUGCCGCCGGUGGUAAAAAAGAUCGGAAGAGCACACGUCU,1.16
10,GGGUCGCGCGCCCAUAAUCGCGUGGAUAUGGCACGCAAGUUUCUACCGGGCACCGUAAAUGUCCGACUGGAGCCGUUCGGGCGGCUAUAAACAGACCUCAGGCCCGAAGCGUGGCGGCACCUGCCGCCGGUGGUAAAAAAGAUCGGAAGAGCACACGUCU,1.04
11,GGGUCGCGCGACCAUAAUCGCGUGGAUAUGGCACGCAAGUUUCUACCGGGCACCGUAAAUGUCCGACUGGAGCCGUUCGGGCGGCUAUAAACAGACCUCAGGCCCGAAGCGUGGCGGCACCUGCCGCCGGUGGUAAAAAAGAUCGGAAGAGCACACGUCU,1.07
12,GGGUCGCGCGAUAAUAAUCGCGUGGAUAUGGCACGCAAGUUUCUACCGGGCACCGUAAAUGUCCGACUGGAGCCGUUCGGGCGGCUAUAAACAGACCUCAGGCCCGAAGCGUGGCGGCACCUGCCGCCGGUGGUAAAAAAGAUCGGAAGAGCACACGUCU,1.38
13,GGGUCGCGCGAUGAUAAUCGCGUGGAUAUGGCACGCAAGUUUCUACCGGGCACCGUAAAUGUCCGACUGGAGCCGUUCGGGCGGCUAUAAACAGACCUCAGGCCCGAAGCGUGGCGGCACCUGCCGCCGGUGGUAAAAAAGAUCGGAAGAGCACACGUCU,1.27
14,GGGUCGCGCGAUUAUAAUCGCGUGGAUAUGGCACGCAAGUUUCUACCGGGCACCGUAAAUGUCCGACUGGAGCCGUUCGGGCGGCUAUAAACAGACCUCAGGCCCGAAGCGUGGCGGCACCUGCCGCCGGUGGUAAAAAAGAUCGGAAGAGCACACGUCU,1.27
15,GGGUCGCGCGAGUAUAAUCGCGUGGAUAUGGCACGCAAGUUUCUACCGGGCACCGUAAAUGUCCGACUGGAGCCGUUCGGGCGGCUAUAAACAGACCUCAGGCCCGAAGCGUGGCGGCACCUGCCGCCGGUGGUAAAAAAGAUCGGAAGAGCACACGUCU,1.24
16,GGGUCGCGCGAGAAUAAUCGCGUGGAUAUGGCACGCAAGUUUCUACCGGGCACCGUAAAUGUCCGACUGGAGCCGUUCGGGCGGCUAUAAACAGACCUCAGGCCCGAAGCGUGGCGGCACCUGCCGCCGGUGGUAAAAAAGAUCGGAAGAGCACACGUCU,1.24
17,GGGUCGCGCGAGGAUAAUCGCGUGGAUAUGGCACGCAAGUUUCUACCGGGCACCGUAAAUGUCCGACUGGAGCCGUUCGGGCGGCUAUAAACAGACCUCAGGCCCGAAGCGUGGCGGCACCUGCCGCCGGUGGUAAAAAAGAUCGGAAGAGCACACGUCU,1.21
18,GGGUCGCGCGUGCAUAAUCGCGUGGAUAUGGCACGCAAGUUUCUACCGGGCACCGUAAAUGUCCGACUGGAGCCGUUCGGGCGGCUAUAAACAGACCUCAGGCCCGAAGCGUGGCGGCACCUGCCGCCGGUGGUAAAAAAGAUCGGAAGAGCACACGUCU,1.16

row,Variant,aptazyme ON/OFF ratio
1,GGGUCGCGCGUUCAUAAUCGCGUGGAUAUGGCACGCAAGUUUCUACCGGGCACCGUAAAUGUCCGACUGGAGCCGUUCGGGCGGCUAUAAACAGACCUCAGGCCCGAAGCGUGGCGGCACCUGCCGCCGGUGGUAAAAAAGAUCGGAAGAGCACACGUCU,1.4
2,GGGUCGCGCGUCAAUAAUCGCGUGGAUAUGGCACGCAAGUUUCUACCGGGCACCGUAAAUGUCCGACUGGAGCCGUUCGGGCGGCUAUAAACAGACCUCAGGCCCGAAGCGUGGCGGCACCUGCCGCCGGUGGUAAAAAAGAUCGGAAGAGCACACGUCU,1.25
3,GGGUCGCGCGUCGAUAAUCGCGUGGAUAUGGCACGCAAGUUUCUACCGGGCACCGUAAAUGUCCGACUGGAGCCGUUCGGGCGGCUAUAAACAGACCUCAGGCCCGAAGCGUGGCGGCACCUGCCGCCGGUGGUAAAAAAGAUCGGAAGAGCACACGUCU,1.2
4,GGGUCGCGCGUCUAUAAUCGCGUGGAUAUGGCACGCAAGUUUCUACCGGGCACCGUAAAUGUCCGACUGGAGCCGUUCGGGCGGCUAUAAACAGACCUCAGGCCCGAAGCGUGGCGGCACCUGCCGCCGGUGGUAAAAAAGAUCGGAAGAGCACACGUCU,1.47
5,GGGUCGCGCGCACAUAAUCGCGUGGAUAUGGCACGCAAGUUUCUACCGGGCACCGUAAAUGUCCGACUGGAGCCGUUCGGGCGGCUAUAAACAGACCUCAGGCCCGAAGCGUGGCGGCACCUGCCGCCGGUGGUAAAAAAGAUCGGAAGAGCACACGUCU,1.24
6,GGGUCGCGCGCGCAUAAUCGCGUGGAUAUGGCACGCAAGUUUCUACCGGGCACCGUAAAUGUCCGACUGGAGCCGUUCGGGCGGCUAUAAACAGACCUCAGGCCCGAAGCGUGGCGGCACCUGCCGCCGGUGGUAAAAAAGAUCGGAAGAGCACACGUCU,1.25
7,GGGUCGCGCGCAAAUAAUCGCGUGGAUAUGGCACGCAAGUUUCUACCGGGCACCGUAAAUGUCCGACUGGAGCCGUUCGGGCGGCUAUAAACAGACCUCAGGCCCGAAGCGUGGCGGCACCUGCCGCCGGUGGUAAAAAAGAUCGGAAGAGCACACGUCU,1.31
8,GGGUCGCGCGCAGAUAAUCGCGUGGAUAUGGCACGCAAGUUUCUACCGGGCACCGUAAAUGUCCGACUGGAGCCGUUCGGGCGGCUAUAAACAGACCUCAGGCCCGAAGCGUGGCGGCACCUGCCGCCGGUGGUAAAAAAGAUCGGAAGAGCACACGUCU,1.16
9,GGGUCGCGCGCAUAUAAUCGCGUGGAUAUGGCACGCAAGUUUCUACCGGGCACCGUAAAUGUCCGACUGGAGCCGUUCGGGCGGCUAUAAACAGACCUCAGGCCCGAAGCGUGGCGGCACCUGCCGCCGGUGGUAAAAAAGAUCGGAAGAGCACACGUCU,1.35
10,GGGUCGCGCGUGUAUAAUCGCGUGGAUAUGGCACGCAAGUUUCUACCGGGCACCGUAAAUGUCCGACUGGAGCCGUUCGGGCGGCUAUAAACAGACCUCAGGCCCGAAGCGUGGCGGCACCUGCCGCCGGUGGUAAAAAAGAUCGGAAGAGCACACGUCU,1.13
11,GGGUCGCGCGUGGAUAAUCGCGUGGAUAUGGCACGCAAGUUUCUACCGGGCACCGUAAAUGUCCGACUGGAGCCGUUCGGGCGGCUAUAAACAGACCUCAGGCCCGAAGCGUGGCGGCACCUGCCGCCGGUGGUAAAAAAGAUCGGAAGAGCACACGUCU,1.12
12,GGGUCGCGCGUGAAUAAUCGCGUGGAUAUGGCACGCAAGUUUCUACCGGGCACCGUAAAUGUCCGACUGGAGCCGUUCGGGCGGCUAUAAACAGACCUCAGGCCCGAAGCGUGGCGGCACCUGCCGCCGGUGGUAAAAAAGAUCGGAAGAGCACACGUCU,1.18
13,GGGUCGCGCGAGCAUAAUCGCGUGGAUAUGGCACGCAAGUUUCUACCGGGCACCGUAAAUGUCCGACUGGAGCCGUUCGGGCGGCUAUAAACAGACCUCAGGCCCGAAGCGUGGCGGCACCUGCCGCCGGUGGUAAAAAAGAUCGGAAGAGCACACGUCU,1.24
14,GGGUCGCGCGAUCAUAAUCGCGUGGAUAUGGCACGCAAGUUUCUACCGGGCACCGUAAAUGUCCGACUGGAGCCGUUCGGGCGGCUAUAAACAGACCUCAGGCCCGAAGCGUGGCGGCACCUGCCGCCGGUGGUAAAAAAGAUCGGAAGAGCACACGUCU,1.24
15,GGGUCGCGCGAACAUAAUCGCGUGGAUAUGGCACGCAAGUUUCUACCGGGCACCGUAAAUGUCCGACUGGAGCCGUUCGGGCGGCUAUAAACAGACCUCAGGCCCGAAGCGUGGCGGCACCUGCCGCCGGUGGUAAAAAAGAUCGGAAGAGCACACGUCU,1.34
16,GGGUCGCGCGAAAAUAAUCGCGUGGAUAUGGCACGCAAGUUUCUACCGGGCACCGUAAAUGUCCGACUGGAGCCGUUCGGGCGGCUAUAAACAGACCUCAGGCCCGAAGCGUGGCGGCACCUGCCGCCGGUGGUAAAAAAGAUCGGAAGAGCACACGUCU,1.31
17,GGGUCGCGCGAAUAUAAUCGCGUGGAUAUGGCACGCAAGUUUCUACCGGGCACCGUAAAUGUCCGACUGGAGCCGUUCGGGCGGCUAUAAACAGACCUCAGGCCCGAAGCGUGGCGGCACCUGCCGCCGGUGGUAAAAAAGAUCGGAAGAGCACACGUCU,1.23
18,GGGUCGCGCGAAGAUAAUCGCGUGGAUAUGGCACGCAAGUUUCUACCGGGCACCGUAAAUGUCCGACUGGAGCCGUUCGGGCGGCUAUAAACAGACCUCAGGCCCGAAGCGUGGCGGCACCUGCCGCCGGUGGUAAAAAAGAUCGGAAGAGCACACGUCU,1.21
